Measurements published in patent publication US20080063717A1.

Experiments:
[1] = biological target: human NKp30 receptor (human); assay: cell-based or functional assay
[2] = biological target: NKp46 receptor (human) (UniProt O76036); assay: cell-based or functional assay
UniProt O76036, sequence (O76036 22-304): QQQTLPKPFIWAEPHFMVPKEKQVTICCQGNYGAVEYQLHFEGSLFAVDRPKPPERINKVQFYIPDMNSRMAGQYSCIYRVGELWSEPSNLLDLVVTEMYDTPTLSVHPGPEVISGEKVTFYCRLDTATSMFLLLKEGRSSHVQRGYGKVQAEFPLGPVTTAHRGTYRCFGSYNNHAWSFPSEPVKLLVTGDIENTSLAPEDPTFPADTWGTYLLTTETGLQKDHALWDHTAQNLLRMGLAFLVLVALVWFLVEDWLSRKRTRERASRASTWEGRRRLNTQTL

human NKp30 receptor (human), sequence (chain, as listed by the source limits assumed): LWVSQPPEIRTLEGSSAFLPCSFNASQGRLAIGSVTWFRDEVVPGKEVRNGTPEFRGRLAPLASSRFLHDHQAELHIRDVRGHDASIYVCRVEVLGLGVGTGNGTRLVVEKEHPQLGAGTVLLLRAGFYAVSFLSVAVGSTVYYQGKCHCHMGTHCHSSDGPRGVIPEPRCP

cells in the culture at day 6 that underwent more than 5 divisions (CFSE) [1] [%]	cells remaining with fluorescence intensity equivalent to resting cells (no division), CFSE, day 6 [1] [%]	dose to obtain 50% of maximum effect (NK cell proliferation from PBMC, titration of antibody with IL-2 and IL-15, 3 donors) [1] [µg/mL]	plateau of the antibody's effect on NK cell proliferation (titration with IL-2 and IL-15, 3 donors) [1] [µg/mL]	cells remaining with fluorescence intensity equivalent to resting cells (no division), CFSE, day 6 [2] [%]	Substance
> 80	5	< 0.1	1	–	AZ20 (anti-NKp30) monoclonal antibody
–	–	–	–	11	Bab281 (anti-NKp46) monoclonal antibody
